Experimental data as given in US20240342305A1 (published 2024).
Changes are numbered by the printed parent chain. Values belong to the binder of their own block, whether it stands above or below them.

Legend:
[1] = target: T1, recombinant human GPC5 (rhGPC5) (human, UniProt P78333 25-551, limits assumed); assay: ELISA, antigen coated 100 ng/well, HRP anti-human Fc detection
T1 sequence (looked up): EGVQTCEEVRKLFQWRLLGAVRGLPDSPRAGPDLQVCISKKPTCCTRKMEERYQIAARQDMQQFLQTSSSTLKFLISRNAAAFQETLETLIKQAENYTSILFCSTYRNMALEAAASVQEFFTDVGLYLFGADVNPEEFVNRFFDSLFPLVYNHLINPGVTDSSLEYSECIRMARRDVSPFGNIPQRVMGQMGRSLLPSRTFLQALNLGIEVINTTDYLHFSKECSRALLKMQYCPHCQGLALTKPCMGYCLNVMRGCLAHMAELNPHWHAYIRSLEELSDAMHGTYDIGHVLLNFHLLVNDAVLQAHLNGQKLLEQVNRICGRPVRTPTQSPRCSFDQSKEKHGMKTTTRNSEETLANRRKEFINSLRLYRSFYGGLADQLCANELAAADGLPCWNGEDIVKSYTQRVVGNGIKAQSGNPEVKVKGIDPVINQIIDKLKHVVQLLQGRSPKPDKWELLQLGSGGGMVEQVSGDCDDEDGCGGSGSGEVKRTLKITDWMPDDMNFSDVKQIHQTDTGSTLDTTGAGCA
Procedure: (§1) In order to analyze the binding specificity of P7D4 series antibody to GPC3 protein, binding activity of P7D4 series single chain antibody to human GPC family members, including recombinant human GPC1 (rhGPC1), GPC2 (rhGPC2), GPC3 (rhGPC3), GPC5 (rhGPC5) and GPC6 (rhGPC6) (purchased from Andy Biosciences (Shanghai) Co., Ltd.) was detected by ELISA, respectively.
(§2) For this purpose, the above 5 antigens were diluted with 0.1 M NaHCO₃ (pH 9.6) coating solution and each well was coated with 100 ng at 50 μl/well overnight at 4° C. and blocked with 2% (w/v) BSA in PBST for 2 hours at room temperature. The plate was then rinsed for three times with PBST and PBST was removed. Subsequently, 100 ng of each antibody protein in PBST was added to each well plate, and the assay for each sample was performed in duplecate wells. After incubated for 2 hours at 37° C., the plates were rinsed for three times with PBST followed by addition of 100 μl/well HRP-labeled rabbit anti-human Fc antibody (purchased from Shanghai Rui Jin Biotechnology Co., Ltd.) diluted at 1:20000 and incubated at 37° C. for 1 hour. For detection, wells were rinsed for three times with PBST followed by three times with PBS and finally with TMB for development for 10 min. The chromogenic reaction was stopped with 50 μl of 2 M H₂SO₄ per well, and extinction value was measured at 450 nm with enzyme-linked immunodetector (Bio-Rad).

[2] = target: T2, recombinant human GPC6 (rhGPC6) (human, UniProt Q9Y625 24-529, limits assumed); assay: as above
T2 sequence (looked up): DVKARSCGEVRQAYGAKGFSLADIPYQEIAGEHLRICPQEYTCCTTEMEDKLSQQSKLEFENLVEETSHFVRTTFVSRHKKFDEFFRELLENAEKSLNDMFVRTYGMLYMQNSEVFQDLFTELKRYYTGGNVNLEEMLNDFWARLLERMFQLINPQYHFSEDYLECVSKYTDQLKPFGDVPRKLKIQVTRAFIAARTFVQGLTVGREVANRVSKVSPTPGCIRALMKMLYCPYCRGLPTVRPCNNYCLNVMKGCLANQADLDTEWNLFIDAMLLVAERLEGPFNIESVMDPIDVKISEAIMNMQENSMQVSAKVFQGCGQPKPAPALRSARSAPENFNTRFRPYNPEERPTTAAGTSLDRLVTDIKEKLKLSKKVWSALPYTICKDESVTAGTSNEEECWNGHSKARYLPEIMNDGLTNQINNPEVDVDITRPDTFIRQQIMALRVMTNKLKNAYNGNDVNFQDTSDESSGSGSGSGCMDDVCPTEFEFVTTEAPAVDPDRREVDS
Procedure: as §1, §2

[3] = target: T3, recombinant human GPC1 (rhGPC1) (human, UniProt P35052 24-530, limits assumed); assay: as above
T3 sequence (looked up): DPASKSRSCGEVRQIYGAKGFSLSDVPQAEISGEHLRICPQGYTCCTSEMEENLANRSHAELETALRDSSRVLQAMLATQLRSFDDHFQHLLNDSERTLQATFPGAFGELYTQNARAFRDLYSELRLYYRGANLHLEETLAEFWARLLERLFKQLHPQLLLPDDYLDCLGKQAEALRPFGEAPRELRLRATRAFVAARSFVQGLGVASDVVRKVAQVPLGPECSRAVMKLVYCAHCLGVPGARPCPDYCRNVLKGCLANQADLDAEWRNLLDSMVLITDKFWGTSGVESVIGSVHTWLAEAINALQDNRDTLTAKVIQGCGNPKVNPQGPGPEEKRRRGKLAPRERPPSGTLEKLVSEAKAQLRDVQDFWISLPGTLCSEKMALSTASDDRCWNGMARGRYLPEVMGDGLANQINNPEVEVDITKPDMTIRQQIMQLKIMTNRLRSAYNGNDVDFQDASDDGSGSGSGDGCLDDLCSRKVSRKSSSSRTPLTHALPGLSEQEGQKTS
Procedure: as §1, §2

[4] = target: T4, recombinant human GPC2 (rhGPC2) (human, UniProt Q8N158 24-554, limits assumed); assay: as above
T4 sequence (looked up): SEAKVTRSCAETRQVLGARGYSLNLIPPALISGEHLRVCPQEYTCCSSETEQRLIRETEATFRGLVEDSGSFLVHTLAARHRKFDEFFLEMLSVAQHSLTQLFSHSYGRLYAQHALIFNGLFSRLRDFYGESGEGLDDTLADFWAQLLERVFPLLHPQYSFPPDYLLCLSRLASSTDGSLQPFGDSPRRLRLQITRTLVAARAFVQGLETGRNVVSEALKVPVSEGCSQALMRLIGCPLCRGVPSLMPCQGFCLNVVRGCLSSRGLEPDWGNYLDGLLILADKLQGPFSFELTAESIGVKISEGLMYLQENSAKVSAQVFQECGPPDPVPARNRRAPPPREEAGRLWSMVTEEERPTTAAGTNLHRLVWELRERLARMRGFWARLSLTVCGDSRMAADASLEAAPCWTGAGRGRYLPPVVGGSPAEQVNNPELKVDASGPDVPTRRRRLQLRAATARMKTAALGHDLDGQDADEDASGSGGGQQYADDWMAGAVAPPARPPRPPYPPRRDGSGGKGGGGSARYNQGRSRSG
Procedure: as §1, §2

[5] = target: T5, human GPC3 recombinant protein (purchased from Shanghai Rui Jin Biotechnology Co., Ltd.) (human, UniProt P51654 25-559, limits assumed); assay: SPR Biacore T200, antibody captured by anti-human IgG (Fc), GPC3 as analyte, single-cycle kinetics, 25 °C
T5 construct: Bought recombinant protein; also called huGPC3; antigen GPC3
Procedure: To quantitatively analyze the binding of P7D4 series antibodies to GPC3, the affinity and kinetic parameters of P7D4 series single-chain antibodies were measured by capture method using Biacore T200 system (from GE). An anti-human IgG (Fc) antibody (purchased from GE) was coupled to carboxymethyl dextran surface of sensor chip CM5 through primary amino with NHS/EDC coupling according to the manufacturer's instructions. Measurements were performed in 1×HBS-EP+working buffer at 25° C., 30 μl/min, and regeneration condition was 3 M MgCl₂, 10 μl/min for 30 seconds. In each round of the testing cycle, the antibody to be tested is firstly captured onto the chip. GPC3 of a certain concentration flowed over the chip surface. The interaction between human GPC3 and the captured antibody caused the change of the molecular concentration on the surface of the sensor chip which was measured according to changes in SPR Signal and expressed in resonance units (RU). Time vs resonance unit (RU) was plotted. The resulting sensorgram documents the entire reaction including the binding and dissociation processes (FIG. 4). In all single-cycle kinetics, GPC3 concentrations were 5 nM, 10 nM, 20 nM, 40 nM and 80 nM, respectively. The resulting curves were evaluated using Biacore T200 evaluation software and the affinity KD values were calculated.

[6] = target: T5, human GPC3 recombinant protein …; assay: SPR Biacore T200, human GPC3 amine-coupled to CM5 (305 RU), antibody as analyte, multi-cycle kinetics, 25 °C
Procedure: (§3) To quantitatively analyze the binding of antibody Y035 to antigen human GPC3, the affinity and kinetic parameters of antibody Y035 were measured by multi-cycle kinetic assay using Biacore T200 system (from GE). Antigen human GPC3 (purchased from Shanghai Rui-Jin Biotechnology Co., Ltd.) was coupled to carboxymethyl dextran surface of sensor chip CM5 through primary amino with NHS/EDC coupling according to the manufacturer's instructions, and the final amount of the conjugated ligand was 305RU. Kinetic measurements were performed in 1×HBS-EP+working buffer at 25° C., 30 μl/min, and regeneration condition was 10 mM Glycine-HCl (pH2.5), 10 μl/min for 25 seconds. In each round of the testing cycle, antibody Y035 of a certain concentration flowed over the chip surface. The interaction between the antibody and the antigen protein human GPC3 fixed on the chip caused the change of the molecular concentration on the surface of the sensor chip which was measured according to changes in SPR Signal and expressed in resonance units (RU). Time vs resonance unit (RU) was plotted and after RU value of the reference channel without fixed antigen was subtracted, the resulting sensorgram documents the entire reaction including the binding and dissociation processes. In different cycles of kinetic assay, the concentration of antibody Y035 was 6.25 nM, 12.5 nM, 25 nM, 50 nM and 100 nM, respectively. The resulting curves were evaluated using Biacore T200 evaluation software and the affinity KD values were calculated. Using the same method, the affinity and kinetic parameters of the parental murine monoclonal antibody 5A5 prior to humanization of Y035 were also assayed. The binding data of antibodies Y035 and 5A5 to human GPC3 proteins, respectively, are summarized in Table 2, and humanized antibody Y035 binds human GPC3 protein much better than mouse 5A5 after humanization.

[7] = target: T5, human GPC3 recombinant protein …; assay: SPR Biacore T200, human GPC3 amine-coupled to CM5, antibody as analyte, multi-cycle kinetics, 25 °C
Procedure: as §3

Kd [5]: 0.0821 nM
koff [5]: 6.7e-05 s⁻¹
kon [5]: 816000 M⁻¹ s⁻¹
B1: P7D4 mutant single chain antibody am42 (scFv, not shown: a dimerising Fc or GST)
scFv: QVQLQESGGGLVQPGRSLRLSCAASGFTFSSYAMHWVRQAPGKGLEWVSAISSSGGSTYYADSVKGRFTISRDNSKNTLYLQMNSLRAEDTAVYYCAKDRRGSHADAFDVWGQGTLVTVSSGGGGSGGGGSGGGGSQSALTQPPSASGSPGQSVTISCTGTSSDVGLMHNVSWYQQYPGKAPKLLIYKSSSRPSGVPDRFSGSKSGTSASLAITGLQAEDGADYYCQSYDSSLRVVFGGGTKVTVLG
binding result [1]: no binding (tested: 100 ng of each antibody protein per well)
binding result [2]: no binding (tested: 100 ng of each antibody protein per well)
binding result [3]: no binding (tested: 100 ng of each antibody protein per well)
binding result [4]: no binding (tested: 100 ng of each antibody protein per well)

Kd [6]: 0.0634 nM
koff [6]: 2.51e-05 s⁻¹
kon [6]: 396000 M⁻¹ s⁻¹
B2: humanized antibody Y035 (antibody, V domains shown)
VH: EVQLVQSGAEVKKPGASVKVSCKASGYTFSDYEMHWVRQAPGQGLEWMGAIHPGSGDTAYNQRFKGRVTITADKSTSTAYMELSSLRSEDTAVYYCARFYSYAYWGQGTLVTVSA
VL: DIVMTQTPLSLPVTPGEPASISCRSSQSLVHSNGNTYLQWYLQKPGQSPQLLIYKVSNRFSGVPDRFSGSGSGTDFTLKISRVEAEDVGVYYCSQSIYVPYTFGQGTKLEIKR
notes: Whole antibody expressed in 293F from vectors pIH-hu12H (heavy) and pIK-hu12L (light), purified on Protein A, detected with goat anti-human antibody

Kd [7]: 0.0819 nM
koff [7]: 2.3e-05 s⁻¹
kon [7]: 280000 M⁻¹ s⁻¹
B3: parental murine monoclonal antibody 5A5 (antibody, V domains shown)
VH: QVQLQQSGTELVRPGASVKLSCKALGYTFTDYEMHWVKQTPVHGLEWIGAIHPGSGDTAYNQRFKGKATLTADKSSSTAYMEYSSLTSEDSAVYYCTRFYSYAYWGQGTLVTVSA
VL: B2 VL with I2V, T14S, P15L, E17D, P18Q, Q50K, S70R, V88L, Y92F, Q105G
notes: Mouse hybridoma antibody purified from ascites on Protein G; also called mouse 5A5
